The supplement of paper PMC7125110
± gives the standard error. Fewer inactive variants are shown than the library holds.

B1: glmS ribozyme (parent)
chain: AUAAAAGCGCCAGAACUACAGAAAUGUAGUUGACGAGGAGGAGGUUUAUCGAAUUUUCGGCGGAUGCCUCCAAA

Variants of: B1
Experiment: self-cleavage kobs at 10000 uM GlcN6P; higher = faster cleavage; RNA array
Conditions: with glucosamine-6-phosphate
Procedure, shortened: (§1)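 On sequenced MiSeq chips, barcoded ribozyme variants were made in situ by E. coli RNA polymerase and followed at 37 °C through a hybridised Cy3 probe. Glucosamine-6-phosphate was flowed in at 40 μM to 10 mM in HEPES/KCl/Mg(OAc)2 buffer. Exponential fits to normalised per-tile medians gave kobs, and weighted Michaelis–Menten fits gave kcat and KM.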

Variant | self-cleavage kobs at 10000 uM GlcN6P [s⁻¹]
C8G A15G G37C U49G | < 1e-05
C10G A14G | 3.42e-05 ± 7.2e-06
C10G U57G C67A | < 1e-05
G43A U47A | 4.61e-05 ± 1.8e-05
G9U G13A U55G | < 1e-05
A5U C8G G9U U30C | < 1e-05
U56A G59A | 4.86e-05 ± 9.7e-06
G9U A12G G37U | < 1e-05
G9C U54G | < 1e-05
C10U U55C G62U | < 1e-05
C8G A15U A39U G51A A52G G60U | < 1e-05
G7U G51A U56G | < 1e-05
C8G C34U G43U G62U C71U | < 1e-05
G7U G32U G59C G62U U65G | < 1e-05
G9U A42U U55G | < 1e-05
G7A C8G G9C G29U G35C G37A | < 1e-05
A6U G44U C71A | < 1e-05
A6C U31G G40C | < 1e-05
C11A G13U A53G C67U C68G | 3.78e-05 ± 1.7e-05
C8G A12C A33C | < 1e-05
C8A G38A G40C U57C | < 1e-05
G7A C16G A52U C61A | < 1e-05
C8G C58U C61U | < 1e-05
C8A U45A A52G C61G C67U | < 1e-05
A6G A12G G40U U47C | < 1e-05

Variant | self-cleavage kobs at 10000 uM GlcN6P [s⁻¹]
A6G G7A C16G U47A A53C C58A | < 1e-05
C8A A48U G66U | < 1e-05
G9A G29A G40U G51A | < 1e-05
G9A U30C G35U U55G | < 1e-05
C11A C16G C58U C68A | 0.000263 ± 8.9e-05
C10G C50U G62U C70G | < 1e-05
A6U G7U C8U G32A G51U | < 1e-05
G9U A33U G40A C58U | < 1e-05
C11A C58A G59A | 6.59e-05 ± 1.3e-05
A6U G51C G63C U69G | < 1e-05
A6C U30G G35U | < 1e-05
C8G C34A G66C | < 1e-05
G44A A48G U55A | < 1e-05
G9C A39U A42U | < 1e-05
A6U G35A U46G G51U C61A | < 1e-05
A6C C50G A64U | 3.95e-05 ± 2e-05
C10A A12G G35C U56A U69A | 0.000264 ± 7.7e-05
G7C U49A C50U A53U U54C C68U | < 1e-05
G9U A36G G43U U55G C68U | < 1e-05
G9A U45G C68U | < 1e-05
G9C G32C C71U | < 1e-05
C11A A12C U31C U49A | < 1e-05
C8A G35C A53U | < 1e-05
C11A A14G C34U G66C | < 1e-05
C8U G32C A33C G40C | < 1e-05

Variants of: B1
Experiment: self-cleavage kobs at 2500 uM GlcN6P; higher = faster cleavage; RNA array
Conditions: with glucosamine-6-phosphate
Procedure, shortened: as §1

Variant | self-cleavage kobs at 2500 uM GlcN6P [s⁻¹]
G43A U47A | 1.85e-05 ± 8.2e-06
U56A G59A | 5.17e-05 ± 1.7e-05
A48G U54G C70U | 0.000276 ± 7.7e-05
U54G C67G C70U C71U | 0.000105 ± 1.9e-05
A48U A53U U69C | 0.000134 ± 3.4e-05
U54A A64G C70A | 0.000536 ± 0.00018
U45C C58U G59C | < 1e-05
U55A C61A C68A | 0.00152 ± 0.00071
A42C U46A U56A | < 1e-05
A42U U45C U55A | 6.42e-05 ± 1.1e-05
C58A G59C C71U | < 1e-05
U45C G60A G63C | < 1e-05
U46A C67G C68U | 0.000113 ± 5.1e-05
G40U G66U C67U | < 1e-05
C50A A53G C58G C68A | 0.000108 ± 3.9e-05
G40U C50G G62A | < 1e-05
A48U C50U U56C G63A A64C U65A | < 1e-05
U47C U54A C70U | 0.00241 ± 0.00052

Variant | self-cleavage kobs at 2500 uM GlcN6P [s⁻¹]
U45G U56G A64G | 0.00171 ± 0.00054
A42G C61A C70A | < 1e-05
G43A A53G G60U C70U | < 1e-05
G44C G62A C68G | < 1e-05
U47G G62A C70G | 0.000139 ± 3.4e-05
G44A A48G U55A | < 1e-05
U47A A48U U55A G60A | < 1e-05
A52C G59C A64U | < 1e-05
A42U U54C C70A | 7.14e-05 ± 2.1e-05
A42U U47G U69A | 0.0115 ± 0.0021
A42C A53C U55C | < 1e-05
U47G U57C C68A | 8.58e-05 ± 3.6e-05
G40A U45C A53C | 3.19e-05 ± 1.5e-05
G63C G66U C71A | < 1e-05
G43U G63U C68G | < 1e-05
A42C A48G C50G C61A C70U | < 1e-05
G44C A48G A53C G59U | < 1e-05
A52U A53C C67G | < 1e-05
